System: K4 kissing-loop RNA reporter
Test: apparent KD of K4 kissing-loop reporter; higher = weaker reporter binding
Conditions: Eterna round: R107
Procedure: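 RNA-MaP round R107: designed RNA switches with theophylline, tryptophan, arginine or FMN aptamers are transcribed on-chip within common flanks. They are titrated with a labelled K4 kissing-loop RNA reporter in RNA-MaP buffer (100 mM Tris pH 7.5, 80 mM KCl, 4 mM MgCl2), without ligand or with the indicated ligand. Median apparent KD per design.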

[1] = input ligand: theophylline 20 uM
[2] = input ligand: tryptophan 2.4 mM
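Note: bound reporter read as fluorescence of individual clusters on recovered sequencing chips by microscopy, with normalized cluster intensities fitted with a binding model.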

Row | Sequence | apparent KD of K4 kissing-loop reporter (input ligand: FMN 200 uM) [nM] | apparent KD of K4 kissing-loop reporter (input ligand: arginine 13.2 mM) [nM] | apparent KD of K4 kissing-loop reporter (input ligand: none) [nM] | apparent KD of K4 kissing-loop reporter [1] [nM] | apparent KD of K4 kissing-loop reporter [2] [nM]
1 | AAAAUAAACCAGUGAUGUUGGUGUCCAGAUACCAGCGGUAAAAUCCGCCCUUGGCAGCUGUGGACGUACAAAAUAAGUACGUCCU [MatMod 4 - Jieux - Same State - Theophylline A] | 430 | 321 | 463 | 286 | 358
2 | UGAUACCAGACUGAUACCAGCCAGUGAUGUUGGCUAAGCCAAAUAGGUGUCAAAGACACCGGCCCUUGGCAGCAGUCUGGUAUCU [TheoBX 2 #SwitchBubble #StaticStem] | 133 | 113 | 126 | 136 | 119
3 | GAGGUAUGCGCAGUGAUGUUGCGACGAGAUACCAGUCGUUCUGUCGACCCUUGGCAGCUCCCACCAGACGUACGAGUUUGUGUUG [theeternabot_sameState_KL_Theo_A_10] | 114 | 111 | 113 | 113 | 99.5
4 | GGGCGCGGCGCGGCCGCCACUGCGCCUGGGUGCUCGCCGAGUGAUGUUCGUCGGCGGUUGGGUGGCAGGACCGGGUGCCGGCCCG [BDazzled - #17 SS Tryptophan B] | 1580 | 533 | 3280 | 2140 | 457
5 | UGACAUUGCUCAGAUACCAGACAUGAGCAUCAGCCAUGUGCCAAAACGUACUAAAUAAAUGUCCCUUGGCAGCUGAGCAAUGUCU [TheoBX 13] | 65 | 26.3 | 40.7 | 73.3 | 61.3
6 | GAUGCCAUGAUCCUCCUGGUAUCGGGAGAUACCAGCGUGCUGACACGCCCUUGGCAGCUCCAUUCGAGAGUGAUGUUGUCGAGAA [KL-SSTheo-A8 #analogue] | 453 | 114 | 330 | 237 | 287
7 | AUUUUGUUGUCAGGAUAUUAGUAUGGUUUUGGUUUGUUAGUGAUGUUGAUGUUUUGUUUAUGUAUUUAAGAAGGGAUUUAGCGGU [aqaawgumullin] | 474 | 352 | 400 | 401 | 343
8 | AAAUAAAGCAGUCACCCAGUGAUGUUGGAAGGAGCGUGCGAAAGCACAGGUAGGUCGCCGAUAGGACAAAGUCCAAGUGGCUGCA [#SwitchBubble 30 #K4Early] | 625 | 437 | 487 | 297 | 318
9 | UGUCAUUGGUCUGAUACCAGUACCCUUGGCAGCCGAGGAGUGAUGUUCCAAGGAUACCAGUACCCUUGGCAGCAGACCGAUGACU [TheoBS 30 #DoubleAptamer #SwitchBubble] | 219 | 178 | 186 | 108 | 215
10 | AACGUUUUGAGAAGGAGCGCGUUAAGCAGUGAUGUUGCUUUAUUUUAUCAAAUACAUAUAUCGCAGGUAGGUCGCUCAAUACGUA [JR_Nu_SSArginiB_Sub026] | 304 | 218 | 253 | 283 | 230
11 | AUGUCUUAUAAACUCAUGGUUUCGAUCGAUACCAGUAGCGAGAGUUACCCUUGGCAGCGACAUGAGUGAUGUUCAUGUACGAAGA [KL-XTheoA5] | 109 | 98.7 | 103 | 106 | 90
12 | CGGAGUGAUGUUCCUUUUAUUAAUUAUUAACGAGGACCGGUACGGCCGCCACUCGAUUUAGCUUUUAUUUAAUGCUUGGAUGUUU [JR_SSTryptoA_Sub003] | 132 | 224 | 157 | 246 | 77
13 | AAAAUAAACCAGUGAUGUUGGUGUCUAGAUACCAGCGACAAAAGUCGCCCUUGGCAGCUACGGACGUACAAAAUAAGUACGUCCU [MatMod 9 - Jieux - Same State - Theophylline A] | 468 | 353 | 472 | 481 | 405
14 | AGGUUUUGAUUAGGAUAUGCACUGACGAUGAGAAUAUAGUGAUGUUAUAUACUACGAAUUAGUAGAGUAGAAGGGAUUGAGGUUU [SSFMNB.Z] | 568 | 338 | 414 | 459 | 335
15 | UUCGAAAGUCGAAGGAGCGCUGUCGGUCAUAGACCAUAUCUGUAGUGAUGUUACAGAUGACAGCAGGUAGGUCGCGACAGAGACA [Arg B SS t18] | 148 | 120 | 127 | 144 | 144
16 | UGAUACCAGACUGAUACCAGCGAGUGAUGUUCGCUGAAAUCAGGGUCAAAGACCCUGUCUCGCCCUUGGCAGCAGUCUGGUAUCU [TheoBX 20 #SwitchBubble #StaticStem] | 147 | 120 | 133 | 185 | 128

Row | Sequence | apparent KD of K4 kissing-loop reporter (input ligand: FMN 200 uM) [nM] | apparent KD of K4 kissing-loop reporter (input ligand: arginine 13.2 mM) [nM] | apparent KD of K4 kissing-loop reporter (input ligand: none) [nM] | apparent KD of K4 kissing-loop reporter [1] [nM] | apparent KD of K4 kissing-loop reporter [2] [nM]
17 | GCUAUGGUUGGAAGGAGCGUUGAAUUGUUGGUAAGAGUGAUGUUCGAUAGUGGAUAGUUGUAGCAGGUAGGUCGCCAACUAUAGC [KL-Arg B27] | 377 | 367 | 532 | 517 | 395
18 | GCCGCCGCGGCAGGAUAUAGACAUUGAGUGAUGUUCGGUGCUUAUCCAAAGUGCUGUUUCGGCCAACUAGAAGGGCCGCGGCGGC | 204 | 94 | 119 | 103 | 119
19 | AGUCCACUCUAAAGAGUGGACCUAAGGGAUACCAGUGAUGUUGGUCACCCUUGGCAGCCCGCUGUCAUCGAUAAAGAUGGCAGGA | 133 | 113 | 129 | 127 | 125
20 | AAAGGCAUAGCCCGAGUGAUGUUCGACGAUACCAGCCUCGAUAGAGGCCCUUGGCAGCGUAAAUGAUCAUGAAGCCAAGGAAUAA [whbob_Ex_Theo_A_th68] | 340 | 303 | 391 | 816 | 422
21 | AGAUUCGACACGGCCGCCACUUCCAGUGGCUGGUGUCAUGGUGCGCGUGAGUGAUGUUUAUGUGGAAGGACCGGGUGUUGAGUCU [KL-XTryp-B1 #analogue] | 938 | 554 | 917 | 606 | 1190
22 | AUUGUACAGGGAAGGAGCGUCGACCAGUGAUGUUGGAGUUAAAUACCAGUGAUGUUGGUUAGGCAGGUAGGUCGCCCUCAAGUAG [#10 K4 Arginine B Exclusion] | 180 | 126 | 141 | 219 | 118
23 | ACGUCCGGAUUGAUCGUGGGCAUGGUCGAUACCAGUAGUUUAAUCUACCCUUGGCAGCGACAUGAGUGAUGUUCAUGUGCGGUGA [#14 K4 Theophylline A Exclusion] | 194 | 191 | 188 | 402 | 200
24 | GUAUGUGGAAACACGUACUUAUAUCCUAGGCAGGAUAUGCGGAAACGCAGAAGGGCCACCGGCGAGUUUAUCCAGUGAUGUUGGA [Ex FMN A 8] | 251 | 253 | 294 | 271 | 245
25 | UUGUAUAGUGGAAGGAGCGCGUGGGCGCAGUGAUGUUGCGCCCGACAUCACUUCAACUUAACGCAGGUAGGUCGCCAUUGUAAUG [Arginine B (Excl) V5] | 131 | 88 | 113 | 104 | 101
26 | UAACUCUUGCAGUGAUGUUGCAAGUAAGCUCAGGAUAUCAGGAAACUGAGAAGGGAGCAUCCUGAGCAACUGCAAGAGCUCAGAA [[K1]-[K2]-[F1]-[F2]-[F]'-[K]'-[F]''_Design1] | 224 | 101 | 95.9 | 160 | 87.5
27 | UAAGAGGACCACUGCGAGAGUCCUCGAAUACGAGGACCGGUACGGCCGCCACUCGAUAAUUUGUAGUGAUGUUGCAAGUAAGAAU [BrourdMod 7 - Jieux - Same State Tryptophan A] | 50.3 | 64.5 | 42.1 | 61.9 | 31.8
28 | AAAUUUGCUCAUGAUACCAGCCAGUGAUGUUGGUUGGUCCACCGUGUCCGAACAUUAAGCGGCCCUUGGCAGCAUGAUGCGCGUA [Ininveaen] | 129 | 105 | 116 | 143 | 112
29 | GUAUCGCUAGGAGGAUAUUUCAAUUCGCCUAUAAAUGGUGAUACGGAGUGAUGUUCCGAUUUACGGAAAGAAGGCCUAGUGAUAC [FMN B 8] | 146 | 275 | 283 | 298 | 282
30 | AGCGUCUGAAGAGGAUAUGACCAGUGAUGUUGGUUACUACCUCAAAUUAGUGUCUCGUCAAAAUCGUCAGAAGGCUUCGACGAGC [#09 K4 FMN B Exclusion] | 122 | 96.2 | 95.7 | 92.8 | 91.2
31 | AGACUACCACACUGUCAAUAGACAGUGGACUAGGAUAUGCUGAUAAGCAGAAGGAGUGAUGUUCCUCGGUAGUCAAUAAAAUAAU [FmnAX 13 G28+C67] | 323 | 318 | 286 | 489 | 273
32 | GUAUAUCGAGUGAUGUUCGAAUGCUCCGAAGGAGCGCGGAUAAUCGCAGGUAGGUCGCGGAGCAGUUGCUGAGGAAGCUCAGUAU [Arg A SS t11] | 162 | 401 | 211 | 211 | 147

— the supplement of paper PMC9170038
